Biological target: the molecule itself
Experiment: cryo-EM structure

B1: D. melanogaster copia Gag protein (natural protein)
chain: not shown
- stoichiometry N: 540 monomers

From publication doi:10.1101/2024.02.21.581285 (bioRxiv, 2024)
